The record followed here is article PMC5889866.

Assay [1] deals with minicollagen peptide H-Gly-Pro-Arg-Gly-(Pro-Hyp-Gly)12-NH2. As to the kind of experiment: SPR; […] (BIACORE); […]; 10 mM sodium HEPES pH 7.4, 150 mM NaCl, 1 mM CaCl2, 0.005% Tween-20; 20 ul/min; 25 C; […]. On the technique in general: In SPR one partner is held on a chip, and binding of the other changes the refractive index at the surface.
For assay [2] the target is unchanged. As to the kind of experiment: SPR; minicollagen peptide amine-coupled on a CM5 chip (BIACORE); collagen anchors as analyte, eight concentrations 100 nM-300 uM; 10 mM sodium HEPES pH 7.4, 150 mM NaCl, 1 mM CaCl2, 0.005% Tween-20; 20 ul/min; 25 C; equilibrium responses fitted; apparent KD.

In assay [1], “CBD (s3) of Clostridium histolyticum class II collagenase ColH (domain or fragment)” gave a Kd of 752 µM.
For the substance “CBD (s3b) of Clostridium histolyticum class I collagenase ColG (domain or fragment)”, the Kd in assay [2] stood at 45.4 µM.
With “CBD-CBD (s3a-s3b) of Clostridium histolyticum class I collagenase ColG (domain or fragment)”, the Kd in assay [2] was 44.6 µM.
Take “PKD-CBD (s2b-s3) of Clostridium histolyticum class II collagenase ColH (domain or fragment)”: the Kd in assay [1] came out at 445 µM.
